Data reported in patent US20180148718.

Target: Hsp90alpha (UniProt P07900)
Assay: FP filter
Conditions: 5-10-5 gapmer, cEt wings 1-5 and 16-20, 2'-deoxy gap, all C 5mC, full PS; nitrocellulose double-filter binding, printed as binding constant

Q: “CTGCTAGCCTCTGGATTTGA [Isis 586183 (PS/cEt)]” was tested. Which Kd did it give?
A: Its Kd is 0.0197 µM.
